Values of other authors in article PMC3515962.

Target: IL-2 receptor (Mus musculus) (UniProt P01590)
Assay: radioligand binding

Chain of UniProt P01590 (P01590 22-236, chain 1 of 3): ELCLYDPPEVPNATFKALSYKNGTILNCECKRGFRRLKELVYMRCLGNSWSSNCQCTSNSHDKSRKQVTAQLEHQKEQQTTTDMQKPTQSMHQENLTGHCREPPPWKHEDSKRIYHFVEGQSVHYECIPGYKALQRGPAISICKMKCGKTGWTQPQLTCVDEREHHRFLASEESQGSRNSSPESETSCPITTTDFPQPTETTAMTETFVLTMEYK
Chain of UniProt P01590 (P16297 27-240, chain 2 of 3, further chain): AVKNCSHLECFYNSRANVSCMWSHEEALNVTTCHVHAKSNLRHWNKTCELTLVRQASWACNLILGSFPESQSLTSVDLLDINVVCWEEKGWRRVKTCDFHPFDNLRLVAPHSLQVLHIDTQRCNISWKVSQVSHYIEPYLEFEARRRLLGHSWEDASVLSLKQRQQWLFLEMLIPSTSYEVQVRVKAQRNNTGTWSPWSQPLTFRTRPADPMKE
Chain of UniProt P01590 (P34902 23-263, chain 3 of 3, further chain): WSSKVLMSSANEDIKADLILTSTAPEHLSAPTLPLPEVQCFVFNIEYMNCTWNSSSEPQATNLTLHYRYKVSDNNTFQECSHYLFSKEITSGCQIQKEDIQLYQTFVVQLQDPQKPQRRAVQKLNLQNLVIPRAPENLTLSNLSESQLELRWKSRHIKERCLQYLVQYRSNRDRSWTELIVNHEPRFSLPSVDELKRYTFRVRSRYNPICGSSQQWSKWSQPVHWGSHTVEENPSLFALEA

Kd: 0.02 nM
Substance: TCGF (IL-2) (from UniProt P60568)
